Test results as given in the DeepSol protein solubility set.

Experiment: soluble on expression in E. coli; label from the status in PepcDB or PDB records

| Sequence | soluble on expression in E. coli |
| --- | --- |
| MKWRYGAAAGVESRGPHIRVQTVASQVPRGVCWMARVAVVVKVYPDDVSIDPKTLAERIKSKLPSGYEVLAEGEEPIAFGLKALKLVIAMNEDTEGGTEEVEQLLKNIEGVQEVEVENVSRMQ | soluble |
| MSLNINKVFYHSSTNMNEVPDNSVDLIITSPPYFNIKDYAKNGTQDLQHSAQHVEDLGALEKYEDYLLGLLKVWLECYRALKPNGKLCINVPLMPMLKKVLNTHYNRHIFDLHADIQHSILHDLNNMLKNKPKMFLLDVYIWKRANPTKRLMFGSYPYPRNFYAQNTIEFIGVFVKDGKPKQPTEEQKEQSQLTQEEWVEFTKQIWEIPIPNKNDIAFGKHAALMPAELARRLIRLYSCVGDVVLDPFSGSGTTLREAKLLKRNFIGYELYENYKPLIEQKLGNLFDFEEGHHHHHH | soluble |
| MGAIEDIYEDLETDVPEEEFREAVEEKVEQMGGLADEETAAMLLAHELNENEVNAIADIEPGMDEVKFLAKVMAIGDLKTFERDDEDEDGRVINVEAADESGSLRLAFWDGQAVDIDEGKLEVGDVLRVKGRPKDGYNGLEVSVDKAEPDEDATIDVEPGAGSSIDALTMGQSDVTLRGLVLDTDSIRTFDRDDGSEGRVSNLTLGDETGRIRVTLWDDRADRADELDAGAAVEIIDGYVRERDGSLELHVGDQGAVDEVEDDVAFEPDADPIAEVELEETADIAGVVRSADPKRTFDRDDGSEGQVRNVRIQDATGDIRVALWGDKADKDIAPGDEVLAADVEIQDGWQDDKEASASWNSTIVVLDDGADLATGGAGGGASAETTDAEHAGLSSFGDEGDDTDADSSGNEAAAVSAGTGDTSPDGGAQSAGQQVEFTGTVVQTGDPVVLDDGEQTMSVETGERVQLGQEITVRGELRDDRLHAEDVFLEHHHHHH | not soluble |
| MSNQRSSLKHLNTFALPAYASNVISAGSVETLIAAWHESKAKRQPVLLLGEGSNVLFIKNFSGTVLLNRIMGITSTEDSAAWYLHVGAGENWHQLVCHSLQNNMPGLENLALIPGCVGSAPIQNIGAYGVELKQVCEYVDLLDMDKGTIQRISAEECQFGYRDSIFKHRYGNGFAIVSVGIKLMKSWTPTLGYGDLIHMDPLTVTATDIFNSVCTMRRSKLPDPMVTGNAGSFFKNPVVSAAIAEEIVHCYPNAPHYLQPDGSVKLAAGWLIDQCSLKGYQIGGAAVHQQQALVLINQSEATGQDVIHLARYIRQQVAQRFSIWLEPEVRFIADNGEVNAVEHLS | not soluble |
| MRAVVVGAGLGGLLAGAFLARNGHEIIVLEKSAMIGGRFTNLPYKGFQLSTGALHMIPHGEDGPLAHLLRILGAKVEIVNSNPKGKILWEGKIFHYRESWKFLSVKEKAKALKLLAEIRMNKLPKEEIPADEWIKEKIGENEFLLSVLESFAGWADSVSLSDLTALELAKEIRAALRWGGPGLIRGGCKAVIDELERIIMENKGKILTRKEVVEINIEEKKVYTRDNEEYSFDVAISNVGVRETVKLIGRDYFDRDYLKQVDSIEPSEGIKFNLAVPGEPRIGNTIVFTPGLMINGFNEPSALDKSLAREGYTLIMAHMALKNGNVKKAIEKGWEELLEIFPEGEPLLAQVYRDGNPVNRTRAGLHIEWPLNEVLVVGDGYRPPGGIEVDGIALGVMKALEKLNLGSFSEWYLLEHHHHHH | soluble |
| MTVSRFLRNPEQVSVALRGKIAAALDELGYIPNRAPDILSNATSRAIGVLLPSLTNQVFAEVLRGIESVTDAHGYQTMLAHYGYKPEMEQERLESMLSWNIDGLILTERTHTPRTLKMIEVAGIPVVELMDSQSPCLDIAVGFDNFEAARQMTTAIIARGHRHIAYLGARLDERTIIKQKGYEQAMLDAGLVPYSVMVEQSSSYSSGIELIRQARREYPQLDGVFCTNDDLAVGAAFECQRLGLKVPDDMAIAGFHGHDIGQVMEPRLASVLTPRERMGSIGAERLLARIRGESVTPKMLDLGFTLSPGGSI | not soluble |
| MAHYPPSKDQLNELIQEVNQWAITNGLSMYPPKFEENPSNASVSPVTIYPTPIPRKCFDEAVQIQPVFNELYARITQDMAQPDSYLHKTTEALALSDSEFTGKLWSLYLATLKSAQYKKQNFRLGIFRSDYLIDKKKGTEQIKQVEFNTVSVSFAGLSEKVDRLHSYLNRANKYDPKGPIYNDQNMVISDSGYLLSKALAKAVESYKSQQSSSTTSDPIVAFIVQRNERNVFDQKVLELNLLEKFGTKSVRLTFDDVNDKLFIDDKTGKLFIRDTEQEIAVVYYRTGYTTTDYTSEKDWEARLFLEKSFAIKAPDLLTQLSGSKKIQQLLTDEGVLGKYISDAEKKSSLLKTFVKIYPLDDTKLGREGKRLALSEPSKYVLKPQREGGGNNVYKENIPNFLKGIEERHWDAYILMELIEPELNENNIILRDNKSYNEPIISELGIYGCVLFNDEQVLSNEFSGSLLRSKFNTSNEGGVAAGFGCLDSIILY | soluble |
| PLSEAELALFDPYSKEESTGPSPTHTGELAAIEVESKRLDQEPWEPGGQEEEEAEDGEPAPAYLGQATELITQALRNEKAGAYAAALQGYQDGVHILLQGVSGDPSPARREGVKKKAAEYLKRAEMLHTHLP | soluble |
| LTKRVQEAQAMTEGERRKLSSVLAYMTDGVIATDRRGKVILINTPAEKMLRVKHESANGRSIIDVLDIGDTYQFEDLMEVDGSLTMDRSTLDKPYVLRANFSVIQRETGFNNGVIAVLHDIT | not soluble |
| MGSDKIHHHHHHMKIYRVGGSVRDELLGLPVKDQDYVVVGATPEEMVRLGYRPVGKDFPVFLHPETHEQYALARTERKIARGYKGFEVYAAPGVTLQEDLARRDLTINAMARDEAGDIVDPFGGIADLQAGILRHIGPAFVEDPVRVLRVARFAARFGFQIAPETLELMKEIVHTGETEALVPERVWQEIAHGLMESHPSRMFYVLRECGALARILPEVDALFGVPQPAHAHPEIDTGIHVMMVIDHAASKQYPLEVRFAGLTHDLGKGTTSPDEWPRHIGHEARSVELVMGLCERIRVPGESRDLALLVARFHGDVHRALELRPATIADMLQATDAYRKKARFQAFLQACASDFHGRPGFADKPYPQKEHLSRALQVAVDVDAGAIAMQLNQSHAGKADLPMRINRQVYAARVERISSLLSHL | not soluble |
| SQEIVAGELERCFLAMPESVLPIVTMEERNDLCRRAGHLSGFTHTASLESSLGGTVTFLLNRNFIRIQTSTVGEVFMRILPFSDSSSVICVVTTVLHPVADSRIDFYTTEWKPLKTDRFWQQPRIEDFFLPHTDRQSYAYQAIYASLTPSYMQVSLSEESDTLSIRQTVTETLAEEEKPLAAIFLSPEPLVYRWQSGRFVRQVR | soluble |
| MGSDKIHHHHHHMELASSYDKHDIRYLSASEMAELRVTNVAANQSPADTSQVSTRPDPAPVPVPAPDARQQVESAAVAFVKDLIEHHGDNDDFALAQVQASYARTVDYYGKLTNLSSIIQDKRNYYRRWPERIYNVRNDSIVVTCANDRCMVSGIYDWVVRSPSIHKQDKGASNFSYTISTGPYPKIIAETSKVRS | not soluble |
| MKGLIIKQPYANWIVEGKKVWEIRKTPTKIRGRVIIISEKKAVGSVEIVDVLGPFTPEELANHENKHLASYDFLKRYANGKKLYAWVLANPEKYDPPIEVKIPNGAQIWVNLKGFVRR | soluble |
| MKYVDGFVVAVPADKKDAYREMAAKAAPLFKEFGALRIVECWASDVPDGKVTDFRMAVKAEENEEVVFSWIEYPSKEVRDAANQKMMSDPRMKEFGESMPFDGKRMIYGGFESIIDE | soluble |
| MATKFNRILVGVDDSADALLAFDYAIHQAKQDGAELVIISILENDEMNVYQALSKDYIHGERQELEQHILKYQKQAQAAGVTKVHAMIAEGEPGETIVKEVIPHVQPDLLIIGSLAKKGIAKHFGSQAAYMAKYAPISVLVIR | not soluble |
| MAKKTSSKGKLPPGPLPLPGLGNLLHVDFQNTPYCFDQLRRRFGDVFSLQLAWTPVVVLNGLAAVREALVTHGEDTADRPPVPITQILGFGPRSQGVFLARYGPAWREQRRFSVSTLRNLGLGKKSLEQWVTEEAACLCAAFANHSGRPFRPNGLLDKAVSNVIASLTCGRRFEYDDPRFLRLLDLAQEGLKEESGFLREVLNAVPVDRHIPALAGKVLRFQKAFLTQLDELLTEHRMTWDPAQPPRDLTEAFLAEMEKAKGNPESSFNDENLRIVVADLFSAGMVTTSTTLAWGLLLMILHPDVQRRVQQEIDDVIGQVRRPEMGDQAHMPYTTAVIHEVQRFGDIVPLGMTHMTSRDIEVQGFRIPKGTTLITNLSSVLKDEAVWEKPFRFHPEHFLDAQGHFVKPEAFLPFSAGRRACLGEPLARMELFLFFTSLLQHFSFSVPTGQPRPSHHGVFAFLVSPSPYELCAVPRHHHH | soluble |
| CGKSEAPPPAQTPEVGIVTLEAQTVTLNTELPGRTNAFRIAEVRPQVNGIILKRLFKEGSDVKAGQQLYQIDPATYEADYQSAQANLASTQEQAQRYKLLVADQAVSKQQYADANAAYLQSKAAVEQARINLRYTKVLSPISGRIGRSAVTEGALVTNGQANAMATVQQLDPIYVDVTQPSTALLRLRRELASGQLERAGDNAAKVSLKLEDGSQYPLEGRLEFSEVSVDEGTGSVTIRAVFPNPNNELLPGMFVHAQLQEGVKQKAILAPQQGVTRDLKGQATALVVNAQNKVELRVIKADRVIGDKWLVTEGLNAGDKIITEGLQFVQPGVEVKTVPAKNVASAQKADAAPAKTDSKG | soluble |
| MKRLLKEKEGIRLEFKEARTALPGNLFETICSMLNHDGGDIVLGVSDDGTVAGVEHAKMETMVSNLVNLSNNPQKLDPPFILFPQTYEIDGKWLIHIQVPSSSQVHKTSGIVFNRSNDGDFRVTQPQQIAEIYNRKRMHYTEGIIYPGLRFEDFKVDLFPKVRNLIRSNNPNHPWLALTDQQMLEKAGLWKRDINSTQEGYTLAAALLLGKDEVIQQLLPFFKIDALVRIEDIYRYDDREYIQTNLIEAYEQLMTFVGKHLPDKFYMEGDQRVSLRNKIFREIAANLIVHREYMNAYPCTFIIYSDRVETENANNPHGEGPIDPEHFAPFPKNPTIIKFFMQLGRVDELGSGILNVNRFIKEYANGGSSQFIEGNVFKMIIPVAGEKIEGAIEGAIEGAIEGAIEGATKKVKDKLAILLKAIAENEGKKVPDYVVITKIPRSSIERYIKQLREANLIDFRDKATLIGGYYLTSKMKQKLKEKSLEHHHHHH | not soluble |
| LRSNIDLFYTPGEILYGKRETQQMPEVGQRLRVGGMVMPGSVQRDPNSLKVTFTIYDAEGSVDVSYEGILPDLFREGQGVVVQGELEKGNHILAKEVLAKHDENYTPPEVEKAMEANHRRPASVYKDPASHHHHHH | soluble |
| MPRAYWKGTLKLSLVTCPVALYPATTSVEKTRFHMINAETGNRLKQQMIDEDTGDVVEKDQKARGYEVRKGKYIEIEKDELEAVQIESTHTIDIDSFVPADEIDQRFLNHPYYIVPDGKAGTDAFAVIRDAMKDKGHVALGRIVLTNREHVLAIEPFGKGLLATTLRYPYELRDAD | not soluble |
| MGSDKIHHHHHHLCRKDASQPSMYDLHRLGWNSFQQLCLTIAREVLAQSVKSFLDSNDGGRDGAFCGTWTPTKNETMSGSFVIQCKFTSKPNALLAKEDIAAELPKIRRLTEKGLCDVYVLMTNAGVSGKQEERIAAELTSAGAKNVLILGGTWITDQIRENTRLRTLVPRVYGLGDLSQILDERAYEQARAVLDSLREDLAKVVMTSAYRNAVDALDRHGFVLLIGEPAAGKTTIASMLAMASADKWKSSVLRKR | not soluble |
| MTNIIKIRASVFIPMSWTEAKMDMETGQVIQFEGDSREFTPHAVNTMRSRVEQEVVVDFYKQEVFSYANTGITTEKVISPDGSVNKRTGKASTENIVCTDIVWNSGGVQFKMSASASNPLNVYAPPVDYVLNVCVKKDGSIDVQGEHDGFPCFEFYKQVDFGPFEKIYTHDFRETGDTAAALGGNMDYSFTKRL | soluble |
| MTLEISNDYGKIDISNEVIASVVGGKAVECYGIVGMASRQQVRDGIAEILGHENYAKGIKVTENNGVVDIDMYIIVSYGVKISEVANNVQSTVKYTLEKSLNVSVNSINIYVQGVRVNNTGKKALEHHHHHH | not soluble |
